Reference: patent publication US20040092720A1 (US Dept. of Health and Human Services, published 2004)
Read-outs that look alike come from different tables or passages of the source.

Tests used:
recombinant human IL-6 [1] = target: T1, recombinant human IL-6 (human, UniProt P05231 30-212, labeled with radioactive iodine); test: radioiodinated IL-6 on peptide array
T1 construct: Labeled probe in solution, added to wells that carry the synthetic peptides; also called IL-6 ligand; Interleukin-6

recombinant human IL-6 [2] = target: T1, recombinant human IL-6; test: radioiodinated IL-6 on peptide array; remark: listed apart in the source
Procedure: Synthetic peptide arrays were constructed in 96-well microtiter plates in accordance with the method set forth in WO 91/02714 (Saxinger), and used to test the binding of recombinant human IL-6 that had been labeled with radioactive iodine (radiolabeling by standard methods). After incubating the radiolabeled IL-6 ligand in a well with each synthetic peptide, a washing step was performed to remove unbound label, and the relative level of radioactivity remaining in each well of the plate was evaluated to determine the relative affinity of each peptide for IL-6 ligand.

Row | Binder | Counts/minute bound (recombinant human IL-6 [1]) [counts/minute] | Counts/minute bound (recombinant human IL-6 [2]) [counts/minute]
1 | SLTSDTLYMVRMAAYTDEGGKDGP [Peptide E59] | 1270 | –
2 | SLTTKAVLLVRKFQNS [Peptide B22] | – | 12600
